10 molecules from PMC11417181, “The SCR-17 and SCR-18 glycans in human complement factor H enhance its regulatory function” (The Journal of Biological Chemistry, 2024) can be followed below.

glycan = not defined here

Usually Kd stands for a measure of binding affinity in units of concentration. A lower Kd goes with higher affinity. As a reminder, the stoichiometry N is the number of molecules, sites or subunits per partner or assembly.

Sequences and labels used below:
B1: complement factor H, native glycosylated, full-length, purified from human plasma (natural protein, UniProt P08603 19-1231, looked up)
chain: EDCNELPPRRNTEILTGSWSDQTYPEGTQAIYKCRPGYRSLGNVIMVCRKGEWVALNPLRKCQKRPCGHPGDTPFGTFTLTGGNVFEYGVKAVYTCNEGYQLLGEINYRECDTDGWTNDIPICEVVKCLPVTAPENGKIVSSAMEPDREYHFGQAVRFVCNSGYKIEGDEEMHCSDDGFWSKEKPKCVEISCKSPDVINGSPISQKIIYKENERFQYKCNMGYEYSERGDAVCTESGWRPLPSCEEKSCDNPYIPNGDYSPLRIKHRTGDEITYQCRNGFYPATRGNTAKCTSTGWIPAPRCTLKPCDYPDIKHGGLYHENMRRPYFPVAVGKYYSYYCDEHFETPSGSYWDHIHCTQDGWSPAVPCLRKCYFPYLENGYNQNYGRKFVQGKSIDVACHPGYALPKAQTTVTCMENGWSPTPRCIRVKTCSKSSIDIENGFISESQYTYALKEKAKYQCKLGYVTADGETSGSITCGKDGWSAQPTCIKSCDIPVFMNARTKNDFTWFKLNDTLDYECHDGYESNTGSTTGSIVCGYNGWSDLPICYERECELPKIDVHLVPDRKKDQYKVGEVLKFSCKPGFTIVGPNSVQCYHFGLSPDLPICKEQVQSCGPPPELLNGNVKEKTKEEYGHSEVVEYYCNPRFLMKGPNKIQCVDGEWTTLPVCIVEESTCGDIPELEHGWAQLSSPPYYYGDSVEFNCSESFTMIGHRSITCIHGVWTQLPQCVAIDKLKKCKSSNLIILEEHLKNKKEFDHNSNIRYRCRGKEGWIHTVCINGRWDPEVNCSMAQIQLCPPPPQIPNSHNMTTTLNYRDGEKVSVLCQENYLIQEGEEITCKDGRWQSIPLCVEKIPCSQPPQIEHGTINSSRSSQESYAHGTKLSYTCEGGFRISEENETTCYMGKWSSPPQCEGLPCKSPPEISHGVVAHMSDSYQYGEEVTYKCFEGFGIDGPAIAKCLGEKWSHPPSCIKTDCLSLPSFENAIPMGEKKDVYKAGEQVTYTCATYYKMDGASNVTCINSRWTGRPTCRDTSCVNPPTVQNAYIVSRQMSKYPSGERVRYQCRSPYEMFGDEEVMCLNGNWTEPPQCKDSTGKCGPPPPIDNGDITSFPLSVYAPASSVEYQCQNLYQLEGNKRITCRNGQWSEPPKCLHPCVISREIMENYNIALRWTAKQKLYSRTGESVEFVCKRGYRLSSRSHTLRTTCWDGKLEYPTCAKR
modifications: eight N-linked biantennary complex-type glycans, among them those at Asn1011 (SCR-17) and Asn1077 (SCR-18)
notes: human complement factor H, 20 SCR domains, Tyr402 form; For the SPR self-association experiment the immobilised copy was biotinylated (EZ-Link Biotinylation kit) and captured on a streptavidin chip; the copy in solution was not labelled; also called CFH; native CFH
B2: partially deglycosylated complement factor H (100 h PNGase F) (natural protein, human, UniProt P08603 19-1231, looked up)
chain: B1 chain
modifications: N-linked glycans partly removed with PNGase F: forms with three to six glycan chains were present
notes: Mixture of glycoforms; also called partially deglycosylated CFH; CFH partially glycosylated; source: purified from human plasma, then PNGase F for 100 h at 37 °C, gel filtration
B3: fully deglycosylated complement factor H (200 h PNGase F) (natural protein, human, UniProt P08603 19-1231, looked up)
chain: B1 chain
modifications: N-linked glycans removed with PNGase F: eight, seven, six or five removed, leaving none, one, two or three glycans
notes: Mixture of forms with none to three glycans left; also called fully deglycosylated CFH; CFH-De; source: purified from human plasma, then PNGase F for 200 h at 37 °C, gel filtration
B4: SCR-18H, glycosylated single-domain fragment of complement factor H expressed in Pichia pastoris (domain or fragment)
chain: RDTSCVNPPTVQNAYIVSRQMSKYPSGERVRYQCRSPYEMFGDEEVMCLNGN(glycan)WTEPPQCKDST
modifications: reading uncertain; also: N-linked hyperglycosylation (Pichia) at Asn1077, recombinant protein
B5: SCR-17/18H, glycosylated two-domain fragment of complement factor H expressed in Pichia pastoris (domain or fragment)
chain: IKTDCLSLPSFENAIPMGEKKDVYKAGEQVTYTCATYYKMDGASNVTCINSRWTGRPTCRDTSCVNPPTVQNAYIVSRQMSKYPSGERVRYQCRSPYEMFGDEEVMCLNGNWTEPPQCKDST
modifications: Pichia hyperglycosylated N-linked glycans (Man8-18GlcNAc2) at Asn1011 and Asn1077
B6: SCR-16/20, glycosylated five-domain C-terminal fragment of complement factor H expressed in Pichia pastoris (domain or fragment)
chain: EGLPCKSPPEISHGVVAHMSDSYQYGEEVTYKCFEGFGIDGPAIAKCLGEKWSHPPSCIKTDCLSLPSFENAIPMGEKKDVYKAGEQVTYTCATYYKMDGASNVTCINSRWTGRPTCRDTSCVNPPTVQNAYIVSRQMSKYPSGERVRYQCRSPYEMFGDEEVMCLNGNWTEPPQCKDSTGKCGPPPPIDNGDITSFPLSVYAPASSVEYQCQNLYQLEGNKRITCRNGQWSEPPKCLHPCVISREIMENYNIALRWTAKQKLYSRTGESVEFVCKRGYRLSSRSHTLRTTCWDGKLEYPTCAKR
modifications: Pichia hyperglycosylated N-linked glycans at Asn1011 and Asn1077
B7: SCR-16/20 deglycosylated with PNGase F (domain or fragment)
chain: B6 chain
modifications: N-linked glycans at Asn1011 and Asn1077 removed with PNGase F
B8: SCR-17H, glycosylated single-domain fragment of complement factor H expressed in Pichia pastoris (domain or fragment)
chain: IKTDCLSLPSFENAIPMGEKKDVYKAGEQVTYTCATYYKMDGASN(glycan)VTCINSRWTGRPTCRDTS
modifications: reading uncertain; also: N-linked hyperglycosylation (Pichia) at Asn1011, recombinant protein
B9: SCR-16/18H, glycosylated three-domain fragment of complement factor H expressed in Pichia pastoris (domain or fragment)
chain: EGLPCKSPPEISHGVVAHMSDSYQYGEEVTYKCFEGFGIDGPAIAKCLGEKWSHPPSCIKTDCLSLPSFENAIPMGEKKDVYKAGEQVTYTCATYYKMDGASNVTCINSRWTGRPTCRDTSCVNPPTVQNAYIVSRQMSKYPSGERVRYQCRSPYEMFGDEEVMCLNGNWTEPPQCKDST
modifications: Pichia hyperglycosylated N-linked glycans at Asn1011 and Asn1077
B10: SCR-16/18H deglycosylated with PNGase F (domain or fragment)
chain: B9 chain
modifications: N-linked glycans at Asn1011 and Asn1077 treated with PNGase F (the paper suggests that removal may have been impeded)

T1 sequence (P01024 23-667, chain 1 of 2): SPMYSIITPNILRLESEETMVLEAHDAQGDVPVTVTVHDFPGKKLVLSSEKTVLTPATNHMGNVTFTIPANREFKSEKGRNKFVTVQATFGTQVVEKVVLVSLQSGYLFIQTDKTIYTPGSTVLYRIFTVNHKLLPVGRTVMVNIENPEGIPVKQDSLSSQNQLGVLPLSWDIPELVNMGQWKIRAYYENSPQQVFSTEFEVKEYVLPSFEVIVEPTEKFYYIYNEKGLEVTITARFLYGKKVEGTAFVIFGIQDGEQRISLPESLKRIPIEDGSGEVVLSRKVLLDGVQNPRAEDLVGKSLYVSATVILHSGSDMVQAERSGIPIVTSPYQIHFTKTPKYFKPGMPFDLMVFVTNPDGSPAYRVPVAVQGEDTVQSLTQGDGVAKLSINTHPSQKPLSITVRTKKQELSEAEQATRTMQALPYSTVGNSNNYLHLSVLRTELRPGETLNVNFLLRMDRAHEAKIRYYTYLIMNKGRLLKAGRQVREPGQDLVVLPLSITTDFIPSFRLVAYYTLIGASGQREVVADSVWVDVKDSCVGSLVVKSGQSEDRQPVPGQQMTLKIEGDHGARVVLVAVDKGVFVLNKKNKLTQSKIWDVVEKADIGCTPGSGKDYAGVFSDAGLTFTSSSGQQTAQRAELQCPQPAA
T1 sequence (P01024 749-1663, chain 2 of 2): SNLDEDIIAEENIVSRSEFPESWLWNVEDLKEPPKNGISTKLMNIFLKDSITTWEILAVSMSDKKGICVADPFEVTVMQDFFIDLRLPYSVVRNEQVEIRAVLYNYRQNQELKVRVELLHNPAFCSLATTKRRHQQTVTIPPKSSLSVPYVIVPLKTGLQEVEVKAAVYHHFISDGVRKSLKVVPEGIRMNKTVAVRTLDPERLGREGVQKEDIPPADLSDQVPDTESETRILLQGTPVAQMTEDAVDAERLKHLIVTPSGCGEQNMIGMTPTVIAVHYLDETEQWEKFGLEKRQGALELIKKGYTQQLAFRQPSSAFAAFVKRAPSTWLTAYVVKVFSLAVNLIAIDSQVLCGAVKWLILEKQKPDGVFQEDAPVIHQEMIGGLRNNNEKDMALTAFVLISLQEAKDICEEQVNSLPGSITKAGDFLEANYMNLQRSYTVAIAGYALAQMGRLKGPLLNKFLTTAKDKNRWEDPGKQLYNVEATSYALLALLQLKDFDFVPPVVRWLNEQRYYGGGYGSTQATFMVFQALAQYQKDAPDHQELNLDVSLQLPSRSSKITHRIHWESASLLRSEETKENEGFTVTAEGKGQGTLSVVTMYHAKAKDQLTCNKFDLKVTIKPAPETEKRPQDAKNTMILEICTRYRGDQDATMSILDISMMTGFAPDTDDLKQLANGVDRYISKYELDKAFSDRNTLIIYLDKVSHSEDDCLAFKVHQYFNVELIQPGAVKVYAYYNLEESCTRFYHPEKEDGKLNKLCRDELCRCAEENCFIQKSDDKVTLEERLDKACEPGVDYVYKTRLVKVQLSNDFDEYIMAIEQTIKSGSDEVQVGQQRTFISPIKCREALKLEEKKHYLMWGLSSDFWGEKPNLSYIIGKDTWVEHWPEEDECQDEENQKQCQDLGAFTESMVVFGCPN

The first series has as its target T1, complement C3b (human, UniProt P01024 23-667; P01024 749-1663, free thiol group in C3b blocked with iodoacetamide (the paper does not say on which chain)).
T1 construct: Amine-coupled to a CM5 chip in the SPR experiment
The series is described as follows: SPR; Biacore X100, C3b amine-coupled to a CM5 chip, CFH preparations flowed at 0.05 to 7.75 μM, 25 °C, Hepes buffer with 0.005% Tween20, single-cycle, 1:1 steady-state affinity fit. The settings on record: both partners purified. (SPR reads the build-up and loss of mass on a sensor chip optically.)
The molecule B1 yielded a dissociation constant (Kd) of 900 ± 60 nM.

The molecule B2 had an equilibrium dissociation constant (Kd) of 2530 ± 420 nM. In turn, B3 returned a dissociation constant (Kd) of 3780 ± 450 nM.

Another series deals with the molecule itself. In words: AUC; sedimentation velocity of the SCR fragments, 20 °C, 50,000 rpm, Hepes buffer (10 mM Hepes, 137 mM NaCl, pH 7.4), c(s) analysis in SEDFIT, proportions of monomer and dimer from peak integration; monomer to dimer.
Details: not given
B4: the “stoichiometry N” value amounted to 2.

Consider B5, for which the “stoichiometry N” value was found to be 2. B6: the “stoichiometry N” value worked out at 2. Consider B7, for which the “stoichiometry N” value came to 2. On to B8, for which the “stoichiometry N” value is 2. The same measure, in the same setting: as for B9, the figure is 2. Turning to B10, the “stoichiometry N” value was determined as 2.

Another series concerns the molecule itself. The description is as above.
Details: not given
This is another data set of the same source.
For B4, the proportion of dimer was determined as 57%. For B5, the proportion of dimer was determined as 72%. Same read-out and setting: as for B6, the figure is 8%; as for B7, 2%. Same read-out and setting: in the case of B8 it was 67%; in that of B9, 78%. Still for that read-out and setting: as for B10, the figure is 63%.
